# Measurements as given in US20240158474A1 (SINO BIOLOGICAL, published 2024).
# B1: monoclonal antibody HPV6-R003 (antibody, V domains shown)
# VH: QQQLEESGGGLVKPGGTLTLTCKASGIDLSNYYMCWVRQAPGKGLEWIGCIYTGSGRTYYASWAKGRFTISKASSTTVTLQMTSLTAADTATYFCARDYLGWRASNIWGPGTLVTVSS
# VL: ELVMTQTPSSVSAAVGGTVTINCQASQSVYSNNLVWYQQKPGQPPKLLIYGASTLASGVPSRFKGSGSGTQFTLTISDVVCDDAATYYCGGYVSDSTDGTAFGGGTEVVVKG
# notes: here built from variable plus constant region so that the signal peptides are left out; In the sandwich ELISA the same antibody is used as coating antibody and, labelled with horseradish peroxidase, as detection antibody; also called anti-HPV6 L1 protein antibody
# Assays:
# HPV39 VLP protein = HPV39 VLP protein (human papillomavirus type 39; human …, UniProt P24838 1-469); test: indirect ELISA, VLP coated at 2 µg/mL, antibody 10 ng/mL, HRP goat anti-rabbit Fc
# HPV58 VLP protein = target: T1, HPV58 VLP protein (human papillomavirus type 58, UniProt P26535 27-499); test: as above
# T1 construct: Complete VLP protein; no limits of the construct printed, whole entry named; also called P58SHELL
# T1 sequence: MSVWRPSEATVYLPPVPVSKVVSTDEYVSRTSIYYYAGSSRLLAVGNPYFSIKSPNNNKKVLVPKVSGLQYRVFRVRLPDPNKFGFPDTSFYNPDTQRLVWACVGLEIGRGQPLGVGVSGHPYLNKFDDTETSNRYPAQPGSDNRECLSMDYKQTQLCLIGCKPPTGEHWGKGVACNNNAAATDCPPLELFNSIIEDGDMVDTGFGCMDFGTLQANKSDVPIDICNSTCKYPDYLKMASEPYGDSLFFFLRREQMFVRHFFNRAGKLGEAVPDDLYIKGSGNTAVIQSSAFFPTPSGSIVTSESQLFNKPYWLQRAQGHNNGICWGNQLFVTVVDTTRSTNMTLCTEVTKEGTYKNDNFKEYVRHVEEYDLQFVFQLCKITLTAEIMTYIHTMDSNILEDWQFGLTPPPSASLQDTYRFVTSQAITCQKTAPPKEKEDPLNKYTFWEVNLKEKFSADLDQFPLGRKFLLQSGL
# HPV51 VLP protein [1] = target: T2, HPV51 VLP protein (human papillomavirus type 51, UniProt P26536 1-474); test: as above
# T2 construct: Complete VLP protein; no limits of the construct printed, whole entry named; also called HPV51L1
# T2 sequence: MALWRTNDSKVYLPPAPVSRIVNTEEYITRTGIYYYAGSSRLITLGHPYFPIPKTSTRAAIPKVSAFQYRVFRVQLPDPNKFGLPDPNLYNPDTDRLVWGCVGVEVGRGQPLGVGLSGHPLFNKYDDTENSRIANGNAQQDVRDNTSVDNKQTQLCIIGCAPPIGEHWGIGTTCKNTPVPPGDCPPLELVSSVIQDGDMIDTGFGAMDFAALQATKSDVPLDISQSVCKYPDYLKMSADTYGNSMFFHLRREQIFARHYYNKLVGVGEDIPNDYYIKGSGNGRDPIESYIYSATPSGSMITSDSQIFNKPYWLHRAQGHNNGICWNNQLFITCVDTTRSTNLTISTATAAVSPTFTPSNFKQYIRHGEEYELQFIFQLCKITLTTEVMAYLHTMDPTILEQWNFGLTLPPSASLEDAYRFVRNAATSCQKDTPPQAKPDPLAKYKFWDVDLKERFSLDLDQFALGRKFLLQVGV
# HPV31 VLP protein = target: T3, HPV31 VLP protein (human papillomavirus type 31; human …, UniProt P17388 1-475; P06416 474-499); test: double-antibody sandwich ELISA on the mixture of 13 HPV VLPs
# T3 construct: range 1-475;range 474-499; Complete VLP protein used as coating protein; also called P31SHELL(1-475Y)+HPV33L1(474K-499K)
# T3 sequence: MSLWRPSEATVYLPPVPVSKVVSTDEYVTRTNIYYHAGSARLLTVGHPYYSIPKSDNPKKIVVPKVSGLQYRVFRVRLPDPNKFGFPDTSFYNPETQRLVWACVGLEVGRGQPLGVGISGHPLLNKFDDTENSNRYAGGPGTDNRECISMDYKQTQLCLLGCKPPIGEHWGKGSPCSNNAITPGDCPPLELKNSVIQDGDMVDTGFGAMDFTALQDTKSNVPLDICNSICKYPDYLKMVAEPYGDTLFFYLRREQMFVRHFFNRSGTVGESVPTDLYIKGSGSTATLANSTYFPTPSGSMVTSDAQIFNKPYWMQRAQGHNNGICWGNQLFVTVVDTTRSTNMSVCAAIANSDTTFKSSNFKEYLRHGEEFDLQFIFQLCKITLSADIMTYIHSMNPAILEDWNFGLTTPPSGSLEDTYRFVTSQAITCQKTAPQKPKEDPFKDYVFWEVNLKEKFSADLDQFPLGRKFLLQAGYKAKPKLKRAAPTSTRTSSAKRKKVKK
# HPV33 VLP protein = target: T4, HPV33 VLP protein (human papillomavirus type 33, UniProt P06416 1-499); test: as above
# T4 construct: Complete VLP protein; no limits of the construct printed, whole entry named; also called HPV33L1
# T4 sequence: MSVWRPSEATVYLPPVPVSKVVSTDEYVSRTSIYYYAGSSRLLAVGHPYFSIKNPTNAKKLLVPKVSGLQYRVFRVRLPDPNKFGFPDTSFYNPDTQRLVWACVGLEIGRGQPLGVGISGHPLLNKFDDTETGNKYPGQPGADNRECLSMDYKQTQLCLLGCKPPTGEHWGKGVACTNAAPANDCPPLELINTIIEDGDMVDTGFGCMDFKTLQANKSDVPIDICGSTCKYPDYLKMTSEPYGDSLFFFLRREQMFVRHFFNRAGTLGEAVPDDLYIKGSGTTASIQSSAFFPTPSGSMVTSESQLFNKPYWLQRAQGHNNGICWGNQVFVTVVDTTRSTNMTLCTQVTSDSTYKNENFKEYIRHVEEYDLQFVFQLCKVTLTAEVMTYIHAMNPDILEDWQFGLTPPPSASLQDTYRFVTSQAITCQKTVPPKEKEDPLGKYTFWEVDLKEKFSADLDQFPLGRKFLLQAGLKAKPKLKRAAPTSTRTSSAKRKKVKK
# HPV51 VLP protein [2] = target: T2, HPV51 VLP protein; test: as above
# Chain of HPV39 VLP protein (P24838 whole entry): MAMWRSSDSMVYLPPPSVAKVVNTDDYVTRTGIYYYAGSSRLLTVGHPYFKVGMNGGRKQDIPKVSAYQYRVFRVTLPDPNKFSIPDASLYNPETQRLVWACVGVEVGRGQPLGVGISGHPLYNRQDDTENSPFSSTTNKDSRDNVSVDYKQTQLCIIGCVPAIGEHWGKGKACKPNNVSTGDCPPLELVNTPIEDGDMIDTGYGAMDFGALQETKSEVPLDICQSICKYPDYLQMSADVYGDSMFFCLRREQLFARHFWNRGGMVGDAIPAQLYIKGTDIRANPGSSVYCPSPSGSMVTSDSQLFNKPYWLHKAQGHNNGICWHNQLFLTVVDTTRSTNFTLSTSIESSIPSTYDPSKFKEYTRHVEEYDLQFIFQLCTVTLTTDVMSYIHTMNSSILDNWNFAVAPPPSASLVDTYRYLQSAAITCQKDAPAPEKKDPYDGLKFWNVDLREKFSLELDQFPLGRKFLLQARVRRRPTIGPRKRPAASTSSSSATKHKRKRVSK
binder,measurement,setting,value
B1,OD450-blank,HPV39 VLP protein,0.047 OD450
same,OD450-blank,HPV58 VLP protein,0.044 OD450
same,OD450-blank,HPV51 VLP protein [1],0.041 OD450
same,binding result,HPV31 VLP protein,"no binding (tested: mixture 50 ng/mL, each subtype 1/13)"
same,binding result,HPV33 VLP protein,"no binding (tested: mixture 50 ng/mL, each subtype 1/13)"
same,binding result,HPV51 VLP protein [2],"no binding (tested: mixture 50 ng/mL, each subtype 1/13)"
